Laboratory results as given in patent publication US7795390B2, “Biological substance nesfatin and its related substances and uses thereof” (Teijin Pharma Limited, priority 2005, dated 2010).

Test system: Wistar rats
Experiment: Administration of recombinant nesfatin into the third ventricle, amount of food intake
Assay type: in vivo, rat
Conditions: 5 pmol intraventricular; 0-1 hour, 1-3 hour and 3-6 hours
Procedure: Rats used were Wistar rats (purchased from Nippon SLC), and the animals were housed under a cycle of 12 hours of the light period from 6 a.m. to 6 p.m. and 12 hours of the dark period from 6 p.m. to 6 a.m. the next morning and fed a powder chew (Nippon Clea, CE-2), and kept at 22° C., and housing was continued under a similar condition during the experiment. For the experiment, among 8-9 week-old male Wistar rats, those individuals weighing 200-250 g were used. For administration, 5 μl of saline (control) or recombinant nesfatin prepared in Working Example 5 dissolved to 0.2 pmol, 0.6 pmol and 3.0 pmol in 5 μl of PBS was administered per individual (N=5 for each group). The rats received intraperitoneal administration of 40 mg/kg body weight of pentobarbital sodium for anesthesia. After the hair was removed from the head, they were fixed in a brain stereotaxic apparatus (David Kopf Instruments, Model 962) and the scalp was incised and a 23G needle (guide cannula) was implanted so as to reach the third ventricle (2.5 mm behind the bregma, 9.5 mm from the surface). One week after implanting the guide cannula, the animals were subjected to the experiment. After recovering from the surgery, a 29G cannula for injection was inserted into the guide cannula under no anesthesia, and 5 μl of PBS or the matured mouse nesfatin solution in PBS was administered at a rate of 1 μl/second. After fixing the cannula as it was for 2-3 minutes after the administration, the cannula was extracted, and the animals were returned to the individual cages. One, three, and six hours thereafter, the weight of the food was determined to record the amount of food intake, which was used as an index of feeding behavior. For the test of significant difference, analysis of variance was used.
The PCR product obtained was subjected to 1% agarose gel electrophoresis to excise an amplified band, which was purified with QIAEX-II kit (QIAGEN). The amplified DNA excised was cleaved with restriction enzymes SpeI and NotI, and ligated to pET41a(+) plasmid vector (Novagen) cleaved with restriction enzymes SpeI and NotI, using the Quick DNA ligase kit (New England Biolabs). From the cloned DNA, a clone, which has no errors in mutant portions introduced after analyzing DNA sequences in a similar manner to Working Example 5 and other nucleotide sequences, can be selected to obtain a vector for expressing the KR-AA mutant. The expression and purification were carried out in a similar manner to Working Example 5. The amino acid sequence of the KR-AA mutant obtained is set forth in SEQ ID NO: 61. Wt (normal nesfatin), which was prepared in Working Example 5, was used. 5 pmol each of the KR-AA mutant (Mut) peptide and the normal nesfatin (Wt) peptide were administered to the third ventricle of rats in a similar manner to Working Example 6. One, three, six and 12 hours thereafter, the weight of the food was determined to record the amount of food intake, which was used as an index of feeding behavior.
Also, in the same manner as in Working Example 6, after 5 pmol of nesfatin was administered into the rat ventricle, the amount of food intake was determined during 0-1 hour/1-3 hours/3-6 hours after the administration. The control group used was the one that only received physiological saline (0 pmol). For testing of significant difference, analysis of variance was used.

B1: Mut: nesfatin mutant in which Lys-Arg at amino acid numbers 84 and 85 is replaced with Ala-Ala (SEQ ID NO: 61) (protein)
chain: GSPIDVDKTKVHNTEPVENARIEPPDTGLYYDEYLKQVIEVLETDPHFREKLQKADIEEIRSGRLSQELDLVSHKVRTRLDELAAQEVGRLRMLIKAKLDALQDTGMNHHLLLKQFEHLNHQNPNTFESRDLDMLIKAATADLEQYDRTRHEEFKKYEMMKEHERREYLKTLSEEKRKEEESKFEEMKRKHEDHPKVNHPGSKDQLKEVWEETDGLDPNDFDPKTFFKLHDVNNDGFLDEQELEALFTRELEKVYNPQNAEDDMIEMEEERLRMREHVMSEIDNNKDRLVTLEEFLRATEKKEFLEPDSWETLDQQQLFTEDELKEYESIIAIQENELKKRAEELQKQKEDLQRQHDHLEAQKQEYHQAVQHLEQKKLQQGIAPSGPAGELKFEPHT
modifications: Chemically-synthesized KR-AA mutant polypeptide
  control activity of food intake: no control activity of food intake was observed
